# Reference: patent US20160311911A1, “METHODS FOR TREATING ALLERGIC AIRWAY INFLAMMATION” (priority 2015, published 2016)
# B1: Amb a 1: major allergen in RWPE, a single protein (protein)
# chain: AEDLQEILPVNETRRLTTSGAYNIIDGCWRGKADWAENRKALADCAQGFGKGTVGGKDGDIYTVTSELDDDVANPKEGTLRFGAAQNRPLWIIFERDMVIRLDKEMVVNSDKTIDGRGAKVEIINAGFTLNGVKNVIIHNINMHDVKVNPGGLIKSNDGPAAPRAGSDGDAISISGSSQIWIDHCSLSKSVDGLVDAKLGTTRLTVSNSLFTQHQFVLLFGAGDENIEDRGMLATVAFNTFTDNVDQRMPRCRHGFFQVVNNNYDKWGSYAIGGSASPTILSQGNRFCAPDERSKKNVLGRHGEAAAESMKWNWRTNKDVLENGAIFVASGVDPVLTPEQSAGMIPAEPGESALSLTSSAGVLSCQPGAPC
# Experiments:
# Format in all cases: cell-based
# Conditions in all cases: 100 μg/mL for 18 hours
# TCM^Hi cells = test: CXCL8 levels in cell supernatants, TCM^Hi cells
# Excerpt: (§1) Three HEK 293 cell lines, TCM^Null (TLR4^Null, CD14^Null, MD2^Null), TLR4^Hi (TLR4^Hi, CD14^Null, MD2^Null) and TCM^hi (TLR4^Hi, CD14^Hi, MD2^Hi; InvivoGen, San Diego, Calif.), were used. In some experiments hTERT immortalized normal human bronchial epithelial cells (HBECs) were used, as previously described (17).
# (§2) Measurement of CXCL8 levels in cell supernatants. TCM^Null, TLR4^Hi, TCM^Hi, TLR4^Hi-ST, or TLR4^Hi-MD2 cells were stimulated with RWPE, Bermuda grass, rye grass, pigweed, mountain cedar, cat dander, LPS, or Amb a 1 at 100 μg/mL for 18 hours. In some experiments HBECs, HBECs transfected with siRNA against MD2, or sham-transfected HBECs were starved for 24 hours and stimulated with RWPE, Bermuda grass, rye grass, timothy grass, pigweed, Russian thistle, cottonwood, walnut, and cat dander allergenic extracts. Cell supernatants were assayed for CXCL8.
# TCM^Null cells = test: CXCL8 levels in cell supernatants, TCM^Null cells
# Excerpt: as §1, §2
# TLR4^Hi cells = test: CXCL8 levels in cell supernatants, TLR4^Hi cells
# Excerpt: as §1, §2
molecule,measurement,setting,value
B1,CXCL8 secretion from TCM^Hi cells,TCM^Hi cells,induced CXCL8 secretion
same,CXCL8 secretion from TCM^Null cells,TCM^Null cells,only in TCM^Hi cells
same,CXCL8 secretion from TLR4^Hi cells,TLR4^Hi cells,only in TCM^Hi cells
